Measurements as given in PMC6981688.

Legend:
[1] = NSL3 ubiquitination: Flag IP, anti-HA-ubiquitin WB, MG132; details: glycan gained; control: NSL3 alone / untreated
A549 colony formation = details: glycan lost; control: NSL3-3wt overexpression
[2] = Flag IP, WB, increasing OGA; details: glycan lost; control: full-length NSL3wt
[3] = Flag IP, anti-HA-ubiquitin WB, increasing OGT1, UBE2S, MG132; details: glycan lost; control: full-length NSL3wt
[4] = WB of histone marks in 293T; details: glycan lost; control: NSL3-3wt overexpression
[5] = Flag IP, anti-HA-ubiquitin WB, increasing OGT1, NSL3-3 truncation; details: glycan lost; control: NSL3-3wt
[6] = Flag-OGT1 IP, WB for NSL3, MOF, MCRS1, PHF20, NSL1, NSL2; details: glycan lost; control: NSL3-3wt overexpression

## NSL3 (nonspecific lethal protein 3): thiamet-G (TMG)
[1]
  degradation_or_half_life: decreases

## NSL3 (nonspecific lethal protein 3): NSL3-3mt (T755A)
A549 colony formation
  other: colony suppression by NSL3-3 overexpression: abolishes

## NSL3 (nonspecific lethal protein 3): NSL3 T755A
[2]
  other: OGA-induced increase of NSL3 ubiquitination and UBE2S binding: decreases
[3]
  other: OGT1-dependent decrease of NSL3 ubiquitination: abolishes

## NSL3 (nonspecific lethal protein 3): Flag-NSL3-3 T755A
[4]
  other: reduction of global H4 acetylation/H3K4me2 by NSL3-3 overexpression: abolishes

## NSL3 (nonspecific lethal protein 3): OGT1 co-transfection
[1]
  degradation_or_half_life: increases

## NSL3 (nonspecific lethal protein 3): NSL3-3 T755A
[5]
  degradation_or_half_life: changes
[6]
  other: loss of NSL complex subunits from Flag-OGT1 IP caused by NSL3-3: abolishes
